Changes are numbered by the printed parent chain. Each block holds one binder with its values, some of them ahead of it.
How the values were obtained:
Experiment in all cases: SPR, Carterra LSA, antibody immobilised
[1] = target: T1, human MerTK extracellular domain (ECD), recombinant (human, UniProt Q12866 21-505)
T1 construct: also called huMerTK; not shown: polyHis tag or TEVS/Thrombin/murine IgG2a Fc tag
T1 sequence: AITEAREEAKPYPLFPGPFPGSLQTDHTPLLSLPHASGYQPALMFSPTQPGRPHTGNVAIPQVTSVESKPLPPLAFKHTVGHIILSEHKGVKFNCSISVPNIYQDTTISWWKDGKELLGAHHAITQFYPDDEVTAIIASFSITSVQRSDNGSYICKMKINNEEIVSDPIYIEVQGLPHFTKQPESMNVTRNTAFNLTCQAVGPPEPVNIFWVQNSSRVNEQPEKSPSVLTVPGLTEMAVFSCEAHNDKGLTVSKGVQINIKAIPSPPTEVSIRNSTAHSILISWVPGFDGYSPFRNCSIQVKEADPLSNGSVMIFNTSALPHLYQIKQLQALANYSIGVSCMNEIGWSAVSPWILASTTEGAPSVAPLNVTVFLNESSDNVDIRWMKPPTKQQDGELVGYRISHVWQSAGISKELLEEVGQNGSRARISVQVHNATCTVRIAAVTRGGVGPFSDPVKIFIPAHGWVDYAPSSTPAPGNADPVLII
Protocol: (§1) Binding kinetics of human anti-MerTK IgG1 LALAPS antibodies of the present disclosure to human, cyno, and murine MerTK were evaluated using a Carterra LSA instrument (Carterra, Salt Lake City, Utah). Briefly, anti-MerTK antibodies were prepared by diluting to 10 μg/ml in 10 mM Acetate, pH 4.25 (Carterra), at 300 μl/well. A HC200M sensor chip (Carterra) was activated using the single channel flow cell with a 7-minute injection of a 1:1:1 mixture of 100 mM MES pH 5.5, 100 mM sulfo-NHS, 400 mM EDC (all reconstituted in MES pH 5.5; 100 μl of each mixed in vial immediately before running assay). After switching to the multi-channel array flow cell, the antibodies were injected over the activated chip in a 96-spot array for 15 minutes. The remaining unconjugated active groups on the chip were then blocked by injecting 1M Ethanolamine pH 8.5 (Carterra) for 7 minutes using the single channel flow cell.
(§2) After priming with running buffer (HBS-TE, Carterra) with 0.5 mg/ml BSA (Sigma), the immobilized anti-MerTK antibodies were tested for their ability to bind to several forms of recombinant MerTK extracellular domain, including human, cynomolgus, and mouse orthologs as described above. Estimates of affinity were generated by injecting each analyte over the entire antibody array using the single channel flow cell. MerTK analytes were diluted to 33.3, 100, and 300 nM in running buffer, and injected in serial from lowest to highest concentration without regeneration. Two buffer blanks were run between each series (one species per series). Data were processed and analyzed using NextGenKIT high-throughput kinetics analysis software (Carterra).
(§3) The equilibrium dissociation constants (KD) were then calculated from the fitted association and dissociation rate constants (k-on and k-off) for anti-MerTK antibodies of the present disclosure. Binding kinetic analysis was also performed on anti-MerTK antibodies H1 (BioLegend, Clone ID: 590H11G1E3), H2 (R&D systems, Clone ID: 125518), M6 (WO2016/106221), and CDX AB2000-A7 hIgG1 (WO2019/084307).

[2] = target: T2, cyno MerTK extracellular domain (ECD), recombinant (cynomolgus monkey, UniProt Q12866 21-505 (human entry))
T2 construct: also called cynomolgus MerTK; not shown: polyHis tag or TEVS/Thrombin/murine IgG2a Fc tag
T2 chain: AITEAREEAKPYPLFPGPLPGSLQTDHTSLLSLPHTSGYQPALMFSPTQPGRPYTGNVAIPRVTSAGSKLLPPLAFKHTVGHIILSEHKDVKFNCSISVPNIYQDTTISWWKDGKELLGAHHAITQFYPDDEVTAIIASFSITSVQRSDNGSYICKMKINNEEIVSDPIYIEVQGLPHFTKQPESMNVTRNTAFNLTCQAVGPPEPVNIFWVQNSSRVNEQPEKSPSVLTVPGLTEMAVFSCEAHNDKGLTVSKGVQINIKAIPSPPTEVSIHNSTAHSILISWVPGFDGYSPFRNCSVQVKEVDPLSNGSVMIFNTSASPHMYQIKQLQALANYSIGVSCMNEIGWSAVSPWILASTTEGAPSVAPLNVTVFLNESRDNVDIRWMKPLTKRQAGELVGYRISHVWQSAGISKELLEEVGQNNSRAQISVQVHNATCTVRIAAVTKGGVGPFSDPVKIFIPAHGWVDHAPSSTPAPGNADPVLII
Protocol: as §1, §2, §3

[3] = target: T3, murine MerTK extracellular domain (ECD), recombinant (mouse, UniProt Q60805 19-497)
T3 construct: also called moMerTK; mouse MerTK; not shown: polyHis tag or TEVS/Thrombin/murine IgG2a Fc tag
T3 sequence: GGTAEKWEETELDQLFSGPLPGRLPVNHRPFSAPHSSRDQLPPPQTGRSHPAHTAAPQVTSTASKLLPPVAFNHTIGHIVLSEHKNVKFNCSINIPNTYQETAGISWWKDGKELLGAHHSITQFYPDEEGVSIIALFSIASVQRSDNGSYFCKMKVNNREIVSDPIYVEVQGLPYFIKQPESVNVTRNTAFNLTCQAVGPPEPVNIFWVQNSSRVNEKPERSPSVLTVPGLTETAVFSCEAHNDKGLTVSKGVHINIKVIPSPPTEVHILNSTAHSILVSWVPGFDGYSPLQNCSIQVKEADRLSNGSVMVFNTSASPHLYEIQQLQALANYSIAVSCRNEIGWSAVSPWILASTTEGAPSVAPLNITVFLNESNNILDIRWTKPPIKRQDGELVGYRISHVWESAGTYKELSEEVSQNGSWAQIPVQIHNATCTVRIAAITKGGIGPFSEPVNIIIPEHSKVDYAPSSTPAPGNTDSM
Protocol: as §1, §2, §3

- Kd [1]: 25 nM
- Kd [2]: 24 nM
- binding result [3]: no binding (tested: 300 nM)
B1: MTK-17 (antibody, human IgG1, V domains shown)
VH: QIQLVQSGPELKKPGETVKISCKASGYTFTNFGMNWVKQAPGKGLKWMGWINTYTGEPTYADDFKGRFAFSLETSASTAYLQINNLKNEDTATYFCSRGAVLRAGAMDCWGQGTSVTVSS
VL: DIQMTQSSSYLSVSLGGRVTITCKASDHINNWLAWYQQKPGNAPRLLISGATSLETGVPSRFSGSGSGKDYTLSITSLQTEDVATYYCQQYWSTPRTFGGGTKLEIK

- Kd [1]: 54 nM
- Kd [2]: 55 nM
- binding result [3]: no binding (tested: 300 nM)
B2: MTK-03 (antibody, human IgG1, V domains shown)
VH: DVQLQESGPGLVKPSQSLSLTCSVTGYSITSGYYWNWIRQFPGNTLEWMGYMSFDGDNKFNPSLKNRISITRDTSKNQFFLRLNSVTTEDTATYYCARGGYNYGSTEANWGQGTLVTVSA
VL: QIVLTQSPAIMSAFPGEKVTITCSASSSVNYMHWFQQKPGTSPKLWIYSTSNLASGVPARFSGSGSGTSYSLTISRMEAEDAATYYCQQRSSYPFTFGSGTKLEIK

- Kd [1]: 43 nM
- Kd [2]: 53 nM
- binding result [3]: no binding (tested: 300 nM)
B3: MTK-07 (antibody, human IgG1, V domains shown)
VH: B2 VH with A120T
VL: B2 VL with N30T, Y48F

- Kd [2]: 99 nM
- binding result [3]: no binding (tested: 300 nM)
B4: MTK-01 (antibody, human IgG1, V domains shown)
VH: QIQLVQSGPELKKPGETVKISCKASGYTFTNYGMNWVKQAPGKGLKCMGWINTYTGEPTYADDFKGRFAFSLETSATTAYLQINNLKNEDTATYFCARRDRYTWFAYWGQGTLVTVSA
VL: QIVLSQSPAILSASPGEKVTMTCRASSSVSYMHWYQQKPGSSPKPWIYATSNLASGVPARFSGSGSGTSYSLTISRVEAEDAATYYCQQWSSNPPTFGGGTKLEIK

- Kd [1]: 2.7 nM
- Kd [2]: 3 nM
- binding result [3]: no binding (tested: 300 nM)
B5: MTK-15 (antibody, human IgG1, V domains shown)
VH: QIQLVQSGPELKKPGETVKISCKASGYTFTNYGVHWVKQAPGKGLKWMGWINTYTGEPTYADDFKGRFAFSLETSASTAYLQINNLKNEDMATYFCARGNRYAYMDYWGQGTSVTVSS
VL: B4 VL with P39S, P95R

- Kd [1]: 33 nM
- Kd [2]: 44 nM
- binding result [3]: no binding (tested: 300 nM)
B6: MTK-04 (antibody, human IgG1, V domains shown)
VH: B4 VH with T77S, T91M, R98K, R99Y, R101N, T103A
VL: B4 VL with I10F, Q36L, A59V, P95R, K106R

- Kd [1]: 6.7 nM
- binding result [2]: no binding (tested: 300 nM)
- binding result [3]: no binding (tested: 300 nM)
B7: MTK-05 (antibody, human IgG1, V domains shown)
VH: QVQLQQSGAELVQPGTSVRLSCKTSGYTFTSYWIQWVKQRPGQGLGWIGEIFPGTGTTYYNEKFKGKATLTIDTSSSTAYMQLSSLTSEDSAVYFCARDGAYFDVWGAGTTVTVSS
VL: DIQMTQSPASLSASVGETVTFTCRASENIFSYLAWYQQKQGKSPQLLVYNAKTLAEGVPSRFSGSGSGTHFSLKINSLQPEDFGSYYCLHHYGTPLTFGAGTKLELK

- Kd [1]: 5.3 nM
- binding result [2]: no binding (tested: 300 nM)
- binding result [3]: no binding (tested: 300 nM)
B8: MTK-12 (antibody, human IgG1, V domains shown)
VH: QVQLQQSGPQLVRPGASVKISCKASGYSFTSHWMHWVKQRPGQGLEWIGMIDPSDGESRLNQKFKDKATLTVDKSSSTAYMQLSSPTFEDSAVYYCARGIYYYGITYAMDYWGQGTSVTVSS
VL: QIVLTQSPAIMSASPGEKVTMTCSASSSVSYMYWYQQKPRSSPRLLIYDTSNLASGVPVRFSGSGSGTSYSLTISRMEAEDAATYYCQQWSSYPLTFGAGTKLELK

- Kd [1]: 9.3 nM
- Kd [2]: 9.2 nM
- binding result [3]: no binding (tested: 300 nM)
B9: MTK-20 (antibody, human IgG1, V domains shown)
VH: QIQLVQSGPELKKPGETVKISCKASGYTFTNYGMTWVKQAPGKGLKWMGWINTYTGEPTYADDFKGRFALSLETSASTAYLQINNLKNEDTATYFCARGGGRLGLRPLDYWGQGTTLTVSS
VL: DIQMTQTTSSLSASLGDRVTISCRASQDINNYLNWYQQKPDGTVKLLIYYTSRLHSGVPSRFSGSGSGTDYSLTISNLEQEDIATYFCQQGNTLPWTFGGGTKLEIK

- Kd [1]: 40 nM
- Kd [2]: 43 nM
- binding result [3]: no binding (tested: 300 nM)
B10: MTK-21 (antibody, human IgG1, V domains shown)
VH: B9 VH with Y32F, K38R, K43M, G44D, T59K, N84T, L86F
VL: B9 VL with R53S, S76T, K103R

- Kd [1]: 18 nM
- Kd [2]: 18 nM
- binding result [3]: no binding (tested: 300 nM)
B11: MTK-18 (antibody, human IgG1, V domains shown)
VH: B9 VH with N31H, L70F, R102Q
VL: B9 VL with I21F, D28A, N30S

- Kd [1]: 2.4 nM
- Kd [2]: 12 nM
- Kd [3]: 130 nM
B12: MTK-19 (antibody, human IgG1, V domains shown)
VH: EVQLQQSGPELVKPGASVKISCKTSGYTFTEYTMHWVKQSHGKSLEWLGGFNPNNVITSYNQRFQGRATLTVDKSSSTAYMELRSLTSDDSAVYYCTRGDLLWSLLLPGNYFDYWGQGTTLTVSS
VL: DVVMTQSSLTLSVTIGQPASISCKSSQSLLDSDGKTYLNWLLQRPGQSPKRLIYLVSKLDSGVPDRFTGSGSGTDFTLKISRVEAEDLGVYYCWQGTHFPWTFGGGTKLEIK

- Kd [1]: 3 nM
- Kd [2]: 2.9 nM
- binding result [3]: no binding (tested: 300 nM)
B13: MTK-11 (antibody, human IgG1, V domains shown)
VH: QVQLKQSGPGLVQPSQSLSITCTVSGFSLTDYGVHWVRQSPGKGLEWLGVIWSSGTTDYNEAFISRLSISKDNSKSHVFFKMNSLQAIDTAIYYCARKGHDPYAMDYWGQGTSVTVSS
VL: QIVLTQSPAIMSASLGERVTMTCTASSSISSSYFHWYQQKPGSSPKLWIYSTSNLPSGVPARFSGSGSGTSYSLTISSMEAEDAATYYCHQYYRSPLTFGAGTKLELK

- Kd [1]: 6.5 nM
- Kd [2]: 6.6 nM
- Kd [3]: 75 nM
B14: MTK-33 (antibody, human IgG1, V domains shown)
VH: QVQLQQPGPELVRPGTSVKLSCKASGYTFTSYWMHWIKQRPGQGLEWIGVIDPSDNYINYNQKFKGKATLTVDTSSSTAYLQLSSLTSEDSAVYYCAREAGTRGYFDYWGQGTTLTVSS
VL: SIVMTQTPKFLLVSAGDRVIITCKASQSVSNTVAWYQQKPGQSPKLLIYYASNRYTGVPDRFTGSGYGTDFTFTISTVQAEDLAVYFCQQDYRSPFTFGSGTQLEMK
